Assay results taken from patent CN115232210A (SHANGDONG NEW TIME PHARM PROD, dated 2022).

How the values were obtained:
重组人CD40-his蛋白 = biological target: T1, 重组人CD40-his蛋白 (human, UniProt P25942 21-193); assay: BLI (Fortebio Blitz), antibody on AMC sensor, huCD40-his 6.25-200 nM
T1 construct: extracellular domain; Recombinant protein; also called 人CD40(ECD)-his; huCD40-his; not shown: his tag

HEK293T细胞表达的人CD40 = biological target: T2, HEK293T细胞表达的人CD40 (human, UniProt P25942 21-277); assay: flow cytometry on 293T-huCD40 cells
T2 construct: whole, on cells; also called HEK293T-huCD40
T2 sequence (P25942 21-277): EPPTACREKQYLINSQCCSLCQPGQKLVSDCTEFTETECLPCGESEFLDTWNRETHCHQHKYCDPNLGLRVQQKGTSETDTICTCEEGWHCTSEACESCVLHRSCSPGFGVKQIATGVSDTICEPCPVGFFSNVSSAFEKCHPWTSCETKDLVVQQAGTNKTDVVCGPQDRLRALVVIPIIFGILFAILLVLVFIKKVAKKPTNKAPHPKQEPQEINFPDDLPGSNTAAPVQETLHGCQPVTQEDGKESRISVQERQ

T1 sequence (P25942 21-193): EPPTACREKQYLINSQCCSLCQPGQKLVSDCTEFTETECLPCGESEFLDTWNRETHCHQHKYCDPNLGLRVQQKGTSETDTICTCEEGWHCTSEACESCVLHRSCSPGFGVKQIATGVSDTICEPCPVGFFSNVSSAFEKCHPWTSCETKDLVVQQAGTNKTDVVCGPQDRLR

Binder	Kd (重组人CD40-his蛋白) [nM]	koff (重组人CD40-his蛋白) [s⁻¹]	kon (重组人CD40-his蛋白) [M⁻¹ s⁻¹]	EC50 (HEK293T细胞表达的人CD40) [µg/mL]
APX005M (antibody, V domains shown) VH: QVQLVESGGGVVQPGRSLRLSCAASGFSFSSTYVCWVRQAPGKGLEWIACIYTGDGTNYSASWAKGRFTISKDSSKNTVYLQMNSLRAEDTAVYFCARPDITYGFAINFWGPGTLVTVSS VL: DIQMTQSPSSLSASVGDRVTIKCQASQSISSRLAWYQQKPGKPPKLLIYRASTLASGVPSRFSGSGSGTDFTLTISSLQPEDVATYYCQCTGYGISWPIGGGTKVEIK	38.2	0.00533	140000	0.487
人源化抗体42 (antibody, human IgG1, kappa, V domains shown, Humanized IgG1/kappa; also called 42D11-8-humanized; 42Humanized) VH: QVQLQESGPGLVKPSQTLSLTCTVSGFSLTSYGVHWVRQHPGKGLEWLGMIWSGGSTDYNSAFISRLTISKDNSKSQVSLKLSSVTAADTAVYYCARVGGDYWGQGTTVTVSS VL: DIVITQSPLSLPVTLGQPASITCRSSQSLVHSRGNTYLHWFQQRPGQSPRLLIYKVSNRFSGVPDRFSGSGSGTDFTLKISRVEAEDVGVYFCFQTTHVPWTFGQGTRLEIKR	33.2	0.00312	94000	0.251
人源化抗体31 (antibody, human IgG1, kappa, V domains shown, Humanized IgG1/kappa; also called 31A2-2-humanized; 31Humanized) VH: QVQLQESGPGLVKPSETLSLTCTVSGFSLTSYSVHWVRQPPGKGLEWLGMIWSGGSTDYNAAFISRLTISKDNSKSQVSLKLSSVTAADTAVYYCARVGGDYWGQGTTVTVSS VL: DVVMTQSPLSLPVTLGQPASITCRSSQSLLHSRGNTYLHWFQQRPGQSPRLLIYKVSNRFSGVPDRFSGSGSGTDFTLKISRVEAEDVGVYFCFQTTHVPWTFGQGTRLEIKR	16.5	0.00223	135000	0.297
嵌合抗体C42 (antibody, human IgG1, kappa, V domains shown, Mouse-human chimeric IgG1/kappa expressed in Expi-293 cells; also called 42Chimeric; 抗体42D11-8的嵌合抗体) VH: QVQLKQSGPGLVQPSQSLSITCTVSGFSLTSYGVHWVRQSPGKGLEWLGMIWSGGSTDYNSAFISRLSISKDNFKSQVFFKMNSLQADDTAIYYCARVGGDYWGQGTTVTVSS VL: DIVITQTPLSLPVSLGDPASISCRSSQSLVHSRGNTYLHWFLQKPGQSPKLLIYKVSNRFSGVPDRFSGSGSGTDFTLRISRLEAEDLGVYFCFQTTHVPWTFGGGTKLEIKR	13.5	0.00524	389000	–
嵌合抗体C31 (antibody, human IgG1, kappa, V domains shown, Mouse-human chimeric IgG1/kappa expressed in Expi-293 cells; also called 31Chimeric; 抗体31A2-2的鼠人嵌合抗体) VH: QVQLKESGPGLVQPSQSLSITCTVSGFSLTNYSVHWVRQSPGKGLEWLGMIWSGGSTDYNAAFISRLSISKDNFKSQVFFKMNSLQADDTAIYYCARVGGDYWGQGTTVTVSS VL: DVLMTQTPLSLPVSLGDPASISCRSSQSLLHSRGNTYLHWFLQKPGQSPKLLIYKVSNRFSGVPDRFSGSGSGTDFTLRISRVEAEDLGVYFCFQTTHVPWTFGGGTKLEIKR	4.52	0.000395	87500	–
